We go through 30 sequences from the nanobody polyreactivity screen of Harvey et al. (2022).

A short description of this data set: yeast display, Sf9 membrane polyspecificity reagent, FACS + sequencing; frameworks hold sequencing errors. A digest of the protocol: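 Synthetic nanobody libraries on Saccharomyces cerevisiae BJ5465 were galactose-induced for 36–48 hours, stained 1 hour at 4 °C with 10% biotinylated, detergent-solubilized Sf9 membrane reagent and enriched on streptavidin microbeads. FACS then separated cells into low and high (top ~1%) gates by anti-HA (expression) and streptavidin (reagent binding) fluorescence. Genes were colony-PCR amplified, MiSeq 2 × 250 sequenced and CDR-length filtered. A clone's polyreactivity label is that of its gate of origin.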
For the sequence “QVQLVESGGGLVQAGGSLPLSCASSGSTFSTYAMGWYRQAPGKERELVAAIRWSGGSTYYADSVKGRFTLSRDNAKNTVYLLMTSLKPEDTAVYYCAKGIRRWYGGSDYWGQGTQVTVSS”, the “polyreactivity (PSR sort gate)” value is “low polyreactivity”. For “QVQLVESGGGLVQAGGSLPLTCAASGRILRAYAMGWYRQAPGNEMELVAAISFSGGSTYYADSVKGRFTISRDYAKNYVYLQINSLKPEDTAVYYCNALYTSYYRPSCMGYWGQGTQVTVSS”, the “polyreactivity (PSR sort gate)” value is listed as “high polyreactivity”.

Turning to “QVQLVESGGGLVQAGGSLRFICAASGFSLYHYAMGWYRQAPGKERELVAAITTSGSRTYYADSVKGRFTISRDTAKITVYLQMNSLKPEDTAVYYCNAVASSTEYDYWGQGTQVTVSS”, the “polyreactivity (PSR sort gate)” value is “high polyreactivity”. In the case of “QVQLVESGGGLVQAGGSLRFICAASGNTLNYYTMGWYRQAPGKERELVAAISSSGGSTYYADSVKGRFTISRDNAKNTVYLQMNSLQPEDTAVYYCNASVINEMNYWGQGTQVTVSS”, the “polyreactivity (PSR sort gate)” value is on record as “low polyreactivity”. In the case of “QVQLVESGGGLVQAGGSLRFSCAASGDTFTSYAMGWYRQAPGKERELVAAISRRGGSTYYADSVKGRFTISRDNAKNTVYLQMNSLKPEDTAVYYCAAKSYSYTEFDYWGQGTQVTVSS” it was “high polyreactivity”. As for “QVQLVESGGGLVQAGGSLRFSCAASGFIFVSNAVGWYRQAPGKERELVAAISRRGGRTYYADSVKGRFTISRDNEKNTVYVPMNSLKPEDTAVYDCAADQYRVSHQWYDYWGQGTQVTVSS”, the entry is “high polyreactivity”; as for “QVQLVESGGGLVQAGGSLRFSCAASGFNFDQNAMGWYRQAPGQERELVAAITRRGGRTYYADSVKGRFTISRDNAKYTVYLQMNSLKPEDTAVYYCAALLPVHHRGYYWGQGTQVTVSS”, “high polyreactivity”; as for “QVQLVESGGGLVQAGGSLRFSCAASGFTIVGNTMGWYRQAPGKERELVASINTNGGSTYYADSVKGRFTISRDNAKNTVYLQMNSLKPEDTAVYYCAKDREDTYFEYEYDYWGQGTQVTVSS”, “low polyreactivity”.

Consider “QVQLVESGGGLVQAGGSLRFSCAASGGIFFRNAMGWYRQAPGKERELVAVISSGGSTYYADSVKGRFTISRDNAKNTVYLQMNSLKPEDTAVYYCAARRKRPVYTVTLHYPYNYWGQGTQVTVSS”, for which the “polyreactivity (PSR sort gate)” value was “high polyreactivity”. For the sequence “QVQLVESGGGLVQAGGSLRFSCAASGGTFFLNVMGWYRPAPGKERELVAAITNSAGSTYYADSVKGRFTISRDNAKNTVYLQMNSLKPEDTAVYYCATDWSKVAGYTSYDYWGQGTQVTVSS”, the “polyreactivity (PSR sort gate)” value was “low polyreactivity”. As for “QVQLVESGGGLVQAGGSLRFSCAASGITFVYYARGWYRQAPGKERELVAAITRSGDSTYYADSVKGRFTISRDNAKNTVYLQMNSLKPEDTAVYYCAAESYYSTYQVEYYDWGQGTQVTVSS”, the “polyreactivity (PSR sort gate)” value is on record as “high polyreactivity”. For the sequence “QVQLVESGGGLVQAGGSLRFSCAASGRIFYPYAMGWYRQAHGKERELVAAIRRSGVDTYYADSVKGRFTISRDNAKNTVYLQMNSLKPEDTAVYYCAADPYWFFPHYDSWGQGTQVTVSS”, the “polyreactivity (PSR sort gate)” value is on record as “low polyreactivity”.

Turning to “QVQLVESGGGLVQAGGSLRFSCAASGSIFKGNVMGWYRQAPGKERELVAAITWSGGSTYYADSVKGRFTISRDNAKNTVSLQMNSLKPEDTAVYNCNTRWILGRRFYYWGQGTQVTVSS”, the “polyreactivity (PSR sort gate)” value was “high polyreactivity”. As for “QVQLVESGGGLVQAGGSLRFSCAASGSIFWSNAMGWYRQAPGKERELVAAITTSDGSTYYADSVKGRFTISRDNAKNTVYLQMNSLKPEDTAVYYCAADTYYVSYGYYYWGQGTQVTVSS”, the “polyreactivity (PSR sort gate)” value is listed as “low polyreactivity”. As for “QVQLVESGGGLVQAGGSLRFSCAASGSSFGANTMGWYRQAPGKERELVAGITSGARTYYADSVKGRFTISRDNAKNTVYLQMNSLKPEDTAVYYCAAKYAWRRYGYWGQGTQVTVSS”, the “polyreactivity (PSR sort gate)” value was “high polyreactivity”. Turning to “QVQLVESGGGLVQAGGSLRFSCAASGSTFFGNTMGWYRQAPGKERELVAAISRRGGSTYYADSVKGRFTISRDNAKNTVYLQMNSLKPEDTAVYYCAKYYHSGGYTPGKYDYWGQGTQVTVSS”, the “polyreactivity (PSR sort gate)” value is recorded as “high polyreactivity”. For the sequence “QVQLVESGGGLVQAGGSLRFSCAASGSTFGTYAMGWYRQAPGKERELVAAISWSGGSTYYADSVKGRFTISRDNAKNTVYLQMNSLKPEDPAVYWGQGTQVTVSS”, the “polyreactivity (PSR sort gate)” value is given as “low polyreactivity”. As for “QVQLVESGGGLVQAGGSLRFSCAASGSTFTRYAMGWYRQAPGKERELVAAISWSGGITYYADSVNGRFTISRDNAKNTVYLQMNSLKPEDTAVYYCAAKRRYTRGGYGVDYWGQGTQVTVSS”, the entry is “high polyreactivity”; as for “QVQLVESGGGLVQAGGSLRFSCAASGSTVYSYAMGWYRQAPGKERELVAAITRGGRTYYADSVKGRFTISRDNAKNTVYFKMNSLKPEDTAVYSCKVVTKFTGRGYDYWGQGSQVTVSS”, “high polyreactivity”; as for “QVQLVESGGGLVQAGGSLRFSCAASGSTYYYNAMGWDRQAPGKERELVASISWSGGSTRYADSVKGRFTISRDNAKNTVYLQMNSLKPEDTAVYYCAARYILSKYGSGVRYNYWGQGTQVSVSS”, “high polyreactivity”. In the case of “QVQLVESGGGLVQAGGSLRFSCAASRRTFANNAMGWYRQAPGKERELVAAISSGGNTYYADSVKGRFTISRDNAKNTVYLQMNSLKPEDTAVYYCAARYWIYRSEYDYWGQGTQVTVSS” it was “high polyreactivity”; in that of “QVQLVESGGGLVQAGGSLRFSCADSGRILSLYAMGWSRQAPGKERELVASINWSDGSTYYADSVKGRFTISRDKAKNTVYLQMNSLKPEDTAVYYCNVDVRSYVAGYDYWGQGTLVTVSS”, “low polyreactivity”. Take “QVQLVESGGGLVQAGGSLRFSCADSGRTFRYYAMGWDIQARGKERELVAAISRGGRTNYGDSVKGRFTISRDNAKNTVYIQMNSLKPVDTAVYYCAVGGYSYYTVGYDYWGQGTQVTVSS”: the “polyreactivity (PSR sort gate)” value is given as “high polyreactivity”. Turning to “QVQLVESGGGLVQAGGSLRFSCSASGSIFGYNTMGWYRPAPGKERQLVAAISKSGGSTYYADSVKGRFTISRDNAKNTVYLQMNSLKPEDSAVYYCATYAKQLSPYYYWGQGIQVTVSS”, the “polyreactivity (PSR sort gate)” value is recorded as “high polyreactivity”. Take “QVQLVESGGGLVQAGGSLRFSFAASGINFRFNAMGWYRQAPGKEREFVAAITYSGDSTYYADSVKGRFTISRDNAKNTVFLQMNSLKREDTAVYYCAADYYAISRRIFYYWGQGTQVTVSS”: the “polyreactivity (PSR sort gate)” value is listed as “low polyreactivity”. “QVQLVESGGGLVQAGGSLRFSSAASGSIFQSYPMGLYRPAPGKERELVAAITRSGGRTYYADSVKGRFTISRDNAKNTVYLQMNSLKPEDTAVYYCAAFGWGYGYWGQGTQVTVSS”: the “polyreactivity (PSR sort gate)” value is “high polyreactivity”. Turning to “QVQLVESGGGLVQAGGSLRIRCAASGSIFGFYALGWSRHAPGKERELVASISWRGSRTYYADSVKGRFTISRDNAKNTVYLQMNSLKPEDSAVYYCNAVAYVSSPQYVSTATGYGYWGQGTQVTVSS”, the “polyreactivity (PSR sort gate)” value is given as “high polyreactivity”. In the case of “QVQLVESGGGLVQAGGSLRIRCAASGSTFSEYDMGWYRQAPGKERELVAAITTSGGSTYYADSVKGRFTISSDNAKNTVYLQMNSLKPEDTAVYYCAADSIGNYLLYDYWGQGTQVSVSS” it was “low polyreactivity”. In the case of “QVQLVESGGGLVQAGGSLRIRCAATGFIFLDYAMGWYRQAPGKERELVAAISSRGARTYYADSVKGRFTISRDNAKNTVYLQMNSLKPEDTAVYYCAARGPLDRYGYWGQGTQVTVSS”, the “polyreactivity (PSR sort gate)” value is on record as “high polyreactivity”. With “QVQLVESGGGLVQAGGSLRIRSAASGGIIWWNAMGWYIQAPGKERELVAAISRSGGTTYYADSVKGRFTISRDNEKNSVYLQMNSLKPEDTAVYFCAAQYRYPGFNYWGQGSQVTVSS”, the “polyreactivity (PSR sort gate)” value is reported as “high polyreactivity”.
